From patent US20030175703 come the findings set out here.

Read-outs that look alike come from different tables or passages of the source. Bounds are passed on as bounds.

In series [1] the target is coagulation factor IXa (FIXa) (UniProt P00740+P00740). To be noted: FIG. 20 legend gives >>5 uM.
For series [2], the system named is E2F.
Series [3] has as its system E2F. This is another data set of the same source.
Series [4] concerns the target coagulation factor Xa (FXa) (UniProt P00742+P00742).

coagulation factor Xa (FXa), sequence (P00742 41-179, chain 1 of 2): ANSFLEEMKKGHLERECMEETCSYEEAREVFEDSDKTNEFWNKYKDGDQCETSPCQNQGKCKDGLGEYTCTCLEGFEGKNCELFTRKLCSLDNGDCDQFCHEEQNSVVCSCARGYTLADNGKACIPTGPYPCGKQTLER
coagulation factor Xa (FXa), sequence (P00742 235-488, chain 2 of 2): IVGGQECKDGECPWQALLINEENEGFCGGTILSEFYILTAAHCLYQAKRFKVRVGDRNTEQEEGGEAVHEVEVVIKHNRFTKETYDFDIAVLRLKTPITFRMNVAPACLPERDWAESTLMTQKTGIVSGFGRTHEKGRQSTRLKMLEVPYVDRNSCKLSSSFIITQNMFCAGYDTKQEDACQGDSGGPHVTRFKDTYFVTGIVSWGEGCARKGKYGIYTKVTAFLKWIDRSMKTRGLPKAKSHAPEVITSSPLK
coagulation factor IXa (FIXa), sequence (P00740 47-191, chain 1 of 2): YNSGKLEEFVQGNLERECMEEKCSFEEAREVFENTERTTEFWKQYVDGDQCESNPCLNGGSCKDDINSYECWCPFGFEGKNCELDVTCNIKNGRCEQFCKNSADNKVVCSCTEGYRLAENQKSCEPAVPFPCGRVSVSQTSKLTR
coagulation factor IXa (FIXa), sequence (P00740 227-461, chain 2 of 2): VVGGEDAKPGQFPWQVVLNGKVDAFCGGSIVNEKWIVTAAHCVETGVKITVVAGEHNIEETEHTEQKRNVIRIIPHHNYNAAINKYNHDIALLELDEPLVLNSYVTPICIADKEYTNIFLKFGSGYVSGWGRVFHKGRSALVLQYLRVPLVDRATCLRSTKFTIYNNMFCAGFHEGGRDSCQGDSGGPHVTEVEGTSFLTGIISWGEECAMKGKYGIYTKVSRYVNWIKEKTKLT

As a reminder, the Kd is the concentration at which binding is half-saturated. Read a low Kd as higher affinity. In series [1], 9.3tM returned a Kd of more than 10000 nM. The substance “AAUGGAAUCACUGAAGGCCCUCCGUAGCACCUAACACAGU [E2F aptamer 221]” registered a Kd with E2F [2] (random region only) of 1.5 nM. The substance “ACCUCGACCCUUCACCUGACUCUCCCAGAAGUUCUGUUUC [E2F aptamer 219]” had a Kd with E2F [2] (random region only) of 2 nM.

As for “AUCCCCGCCGUAAGCCGUCCUGAUGGACACCACACGCCGC [E2F aptamer 226]”, the Kd in the series with E2F [2] (random region only, table and listing differ near 5' end) was determined as 2 nM. In turn, “CAAGCGCUGAAACCAAUGCACCCCACCCCACACUGGUGUAC [E2F aptamer 204]” had a Kd with E2F [2] (random region only) of 1.25 nM. In the series with E2F [2] (random region only), “CAAGCGUAUACCCUACCCACACUGAGCUACAUUGCGCUGA [E2F aptamer 213]” yielded a Kd of 8 nM. “CACUGAACGAAUGGCAACCGCCAAACCCUACCCACACUGG [E2F aptamer 212]” yielded a Kd in the series with E2F [2] (listed as assignment inferred) of 0.2 nM.

In the case of “CAGAUUACCCUACCCACACUGCGUGCGGACAACCAUUGGC [E2F aptamer 201]”, the Kd in the series on E2F [2] (random region only) worked out at 0.4 nM. For the substance “CCACCCGAAGCAAAUCAAGCCCGACGGCGCUCGGACCAAC [E2F aptamer 217]”, the Kd in the series with E2F [2] (random region only) came to 15 nM.

The substance “CGAACGAACUGUGGACCCUACCCACACUGGGCCAAGCGAU [E2F aptamer 207]” gave a Kd in the series with E2F [2] (random region only) of 0.4 nM. With “CGUCACUCCGUCCCAGCCGACGAAGUCCGUAAUUCCUCCA [E2F aptamer 216]”, the Kd in the series on E2F [2] (random region only) worked out at 45 nM. In the series on E2F [2] (random region only), “GCACUAAACUUCGAUUACCCCCCACCCACACUGGCUGCAC [E2F aptamer 200]” came in with a Kd of 4 nM. “GCAUCCUGCCAGCGGCGACGGACCUUCGCCCACAGGCCUC [E2F aptamer 222]” returned a dissociation constant (Kd) in the series on E2F [2] (random region only) of 2 nM. In turn, “GCCGAGAGUGAGUGACCACAACCCCGCCCACACUGGAAUA [E2F aptamer 214]” showed a Kd in the series with E2F [2] (random region only) of 1.5 nM. For “GCUGCCGCGCCUGGACCCCACCCACAUAUGGGCCACACAC [E2F aptamer 189]”, the Kd in the series on E2F [2] (random region only, listing prints T for U) was determined as 1.5 nM. “GGGAGAGAGGAAGAGGGAGGGAAAGCACACGAAGCCCCAGCAAAACCCCACAGGCAAACCCAGAGGCGAAGACGGACCCCCC [E2F 10-3 / 10-7 / 10-11 / 10-12]” registered a Kd with E2F [3] (printed sequence appears to lack U residues (compare SEQ 223)) of 1 nM.

Turning to “GGGAGAGAGGAAGAGGGAGGGAAGGAACACGAAGGCCCCCGAGCACCAACACAGCAAACCCAGAGGCGAAGACGGACCCCCC [E2F 10-1 / 10-8]”, the Kd with E2F [3] (printed sequence appears to lack U residues (compare SEQ 221)) turned out to be 1.5 nM. As to “GGGAGAGAGGAAGAGGGAGGGACCCCGCCGAAGCCGCCGAGGACACCACACCCGCCAAACCCAGAGGCGAAGACGGACCCCCC [E2F 10-6]”, in the series on E2F [3] (printed sequence appears to lack U residues (compare SEQ 226)), the Kd was found to be 2 nM.

In the series on E2F [3] (printed sequence appears to lack U residues (compare SEQ 224)), “GGGAGAGAGGAAGAGGGAGGGAGAAACACAGAAGCCCGCGCGACACCCCACGCAAACCCAGAGGCGAAGACGGACCCCCC [E2F 10-4]” showed a Kd of 5 nM.

As to “GGGAGAGAGGAAGAGGGAGGGCAAACCACAGACCCAACGCAGGAGCACCCACCCACACGGGACAGCAAACCCAGAGGCGAAGACGGACCCCCC [E2F 10-5]”, in the series with E2F [3] (printed sequence appears to lack U residues (compare SEQ 225)), the Kd turned out to be 2.5 nM. Substance “GGGAGAGAGGAAGAGGGAGGGGCACCGCCAGCGGCGACGGACCCGCCCACAGGCCCCAAACCCAGAGGCGAAGACGGACCCCCC [E2F 10-2]” showed a Kd with E2F [3] (printed sequence appears to lack U residues (compare SEQ 222)) of 3 nM.

Regarding “GGGAGAGAGGAAGAGGGAUGGGAAAAUACGCCANNCGAGAUUAUACUUGGCCCCGCUAAUACCAUAACCCAGAGGUCGAU [D6-6]”, the Kd in series [4] is 3.1 nM.

The substance “GGGAGAGAGGAAGAGGGAUGGGAGUCCGACUGGAGAACANGUACUCUAUAAGCACUUNCAUNCANCAUAACCCAGAGGUCGAU [E10-7]” came in with a Kd in series [4] of 69.5 nM. With “GGGAGAGAGGAAGAGGGAUGGGCCAUUGCUNCCCUGAACANGGGCNCCACNCCGCCUNCACAGUCAUAACCCAGAGGUCGAU [E10-1]”, the Kd in series [4] was 51.7 nM.

In the case of “GGGAGAGAGGAAGAGGGAUGGGNGAUUAGCCCNAGCGAGAUANUACUUGGCCCCGCUACNUCCAUAACCCAGAGGUCGAU [D7-8]”, the Kd in series [4] stood at 14.5 nM. Consider “UAUGAAAUCACAGAAGCCCGCGUUCGACACCUCCACUGUU [E2F aptamer 224]”, for which the Kd in the series on E2F [2] (random region only) was determined as 3 nM. For the substance “UUAUAUAGCACACUGAAGCCCUCAGCAAAACCUCCACAGG [E2F aptamer 223]”, the Kd in the series on E2F [2] (random region only) came to 1.5 nM. Regarding “UUUCCUAUGGCGAUAACUUCAGCCACGCCGGCGCCCCGUG [E2F aptamer 215]”, the Kd with E2F [2] (random region only) was determined as 30 nM.
